Experiments:
[1] = target: ΔN LSD1 (171–852)–CoREST (286–482) complex (human) (UniProt O60341)
[2] = target: ΔN LSD1 (171–852)–CoREST (286–482) complex (human) (UniProt O60341); test: enzyme inhibition kinetics (peroxidase-coupled demethylase assay); 0.3 μM ΔN LSD1-CoREST, 50 mM Hepes (Na) pH 7.5, 25 °C; H3K4me2 peptide (1-21) substrate 10-60 μM; NLS 0-10 μM or NLSp∗ 0-100 μM; fit to competitive inhibition; Ki called apparent in the legend
[3] = target: biotinylated NT-LSD1 (residues 100–151) (human); test: SPR; biotinylated NT-LSD1 immobilised at 560 RU; ΔN LSD1-CoREST injected at 25-1000 nM, 40 μl/min, in running buffer
[4] = target: biotinylated recombinant human nucleosome (unmodified, 147 bp 601 DNA) (human) (UniProt P68431); test: SPR; biotinylated recombinant human nucleosomes (147 bp 601 DNA) immobilised on a streptavidin chip SA at 4000-5000 RU; LSD1-CoREST injected at 5-2000 nM (full length up to 500 nM), 40 μl/min; Biacore 3000, 298 K; running buffer 10 mM Tris, 100 mM NaCl, 1 mM EDTA, 2 mM TCEP, 0.005% Tween 20, pH 7.4; apparent Kd

NLS peptide (LSD1 aa 107–120)
IC50 of inhibition of ΔN LSD1-CoREST demethylation of H3K4me2 nucleosomes (quantitative Western blot, NLS peptide 10-400 μM) [1]: 30400 nM | Ki [2]: 3300 nM

ΔN LSD1 (171–852)–CoREST (286–482) complex (from UniProt O60341 171-852)
Kd [3]: 571 nM | Kd [4]: 1760 nM

full-length LSD1 (1–852)-CoREST (286–482) complex (from UniProt O60341 1-852)
Kd [4]: 103 nM

phosphomimic NLS peptide (aa 107–120, T110D/S111D)
Ki [2]: 38700 nM

Reference: PMC11388019, “Autoregulatory mechanism of enzyme activity by the nuclear localization signal of lysine-specific demethylase 1 [drawing 1]” (The Journal of Biological Chemistry, 2024)
